{"source": "the Human Domainome abundance scans (Beltran et al. 2025)", "parents": {"B1": {"name": "Cytoplasmic polyadenylation element-binding protein 2, residues 513 to 575; numbered along this chain, Q7Z5Q1 (parent)", "chain": "KRVEVKPYVLDDQMCDECQGARCGGKFAPFFCANVTCLQYYCEFCWANIHSRAGREFHKPLVK"}}, "note": "± gives the uncertainty stated by the source.", "data": [{"variants_of": "B1", "test": "abundance fitness (aPCA) (normalised: wild type 0, dead -1); higher = more abundant; growth selection in yeast, the domain comes from the species named", "details": "Homo sapiens", "values": [{"variant": "F57I", "abundance fitness": "-0.109 ± 0.11"}, {"variant": "F57M", "abundance fitness": "0.144 ± 0.066"}, {"variant": "F57T", "abundance fitness": "0.121 ± 0.061"}, {"variant": "F57W", "abundance fitness": "0.026 ± 0.049"}, {"variant": "Q13C", "abundance fitness": "-0.146 ± 0.063"}, {"variant": "Q13K", "abundance fitness": "0.161 ± 0.058"}, {"variant": "Q13W", "abundance fitness": "-0.372 ± 0.055"}, {"variant": "Q13P", "abundance fitness": "-0.211 ± 0.049"}, {"variant": "Q13H", "abundance fitness": "-0.087 ± 0.084"}, {"variant": "R52L", "abundance fitness": "-0.017 ± 0.039"}, {"variant": "R52V", "abundance fitness": "0.102 ± 0.031"}, {"variant": "R52D", "abundance fitness": "0.156 ± 0.073"}, {"variant": "R52F", "abundance fitness": "-0.071 ± 0.084"}, {"variant": "R52W", "abundance fitness": "-0.225 ± 0.061"}, {"variant": "Q19I", "abundance fitness": "-0.503 ± 0.13"}, {"variant": "Q19L", "abundance fitness": "0.075 ± 0.034"}, {"variant": "Q19S", "abundance fitness": "-0.071 ± 0.029"}, {"variant": "Q19R", "abundance fitness": "-0.015 ± 0.049"}, {"variant": "Q19M", "abundance fitness": "-0.091 ± 0.055"}, {"variant": "Q19D", "abundance fitness": "-0.056 ± 0.076"}, {"variant": "A53H", "abundance fitness": "0.053 ± 0.064"}, {"variant": "A53V", "abundance fitness": "-0.006 ± 0.038"}, {"variant": "A53P", "abundance fitness": "0.157 ± 0.046"}, {"variant": "A53S", "abundance fitness": "0.053 ± 0.031"}, {"variant": "A53M", "abundance fitness": "-0.045 ± 0.057"}, {"variant": "A53T", "abundance fitness": "0.082 ± 0.046"}, {"variant": "H50E", "abundance fitness": "-0.546 ± 0.066"}, {"variant": "H50N", "abundance fitness": "-0.827 ± 0.18"}, {"variant": "H50W", "abundance fitness": "-0.784 ± 0.093"}, {"variant": "H50Y", "abundance fitness": "-0.806 ± 0.13"}, {"variant": "H50M", "abundance fitness": "-0.875 ± 0.1"}, {"variant": "H50G", "abundance fitness": "-0.637 ± 0.05"}, {"variant": "N48G", "abundance fitness": "0.074 ± 0.059"}, {"variant": "N48Q", "abundance fitness": "-0.028 ± 0.052"}, {"variant": "N48S", "abundance fitness": "0.032 ± 0.039"}, {"variant": "N48M", "abundance fitness": "0.068 ± 0.071"}, {"variant": "N48E", "abundance fitness": "0.104 ± 0.088"}, {"variant": "N48V", "abundance fitness": "-0.003 ± 0.061"}, {"variant": "N48K", "abundance fitness": "0.164 ± 0.081"}, {"variant": "K26W", "abundance fitness": "-0.509 ± 0.064"}, {"variant": "K26H", "abundance fitness": "-0.126 ± 0.075"}, {"variant": "K26M", "abundance fitness": "-0.1 ± 0.056"}, {"variant": "K26D", "abundance fitness": "-0.148 ± 0.088"}, {"variant": "K26G", "abundance fitness": "-0.082 ± 0.046"}, {"variant": "K26V", "abundance fitness": "-0.06 ± 0.038"}, {"variant": "A47K", "abundance fitness": "0.091 ± 0.063"}, {"variant": "A47Q", "abundance fitness": "-0.01 ± 0.085"}, {"variant": "A47R", "abundance fitness": "-0.041 ± 0.042"}, {"variant": "A47E", "abundance fitness": "-0.001 ± 0.087"}, {"variant": "A47M", "abundance fitness": "0.019 ± 0.053"}, {"variant": "C32I", "abundance fitness": "-0.47 ± 0.2"}, {"variant": "C32Q", "abundance fitness": "-0.742 ± 0.096"}, {"variant": "P60Q", "abundance fitness": "0.051 ± 0.046"}, {"variant": "P60C", "abundance fitness": "-0.154 ± 0.075"}, {"variant": "P60A", "abundance fitness": "-0.051 ± 0.046"}, {"variant": "P60R", "abundance fitness": "-0.052 ± 0.041"}, {"variant": "P60W", "abundance fitness": "-0.817 ± 0.069"}, {"variant": "A21V", "abundance fitness": "-0.098 ± 0.041"}, {"variant": "A21T", "abundance fitness": "-0.117 ± 0.053"}, {"variant": "A21H", "abundance fitness": "-0.238 ± 0.077"}, {"variant": "A21F", "abundance fitness": "-0.23 ± 0.081"}, {"variant": "A21C", "abundance fitness": "-0.447 ± 0.058"}, {"variant": "A28Q", "abundance fitness": "-0.366 ± 0.079"}, {"variant": "A28I", "abundance fitness": "-0.337 ± 0.065"}, {"variant": "A28R", "abundance fitness": "-0.233 ± 0.039"}, {"variant": "A28C", "abundance fitness": "-0.674 ± 0.15"}, {"variant": "A28K", "abundance fitness": "-0.094 ± 0.06"}, {"variant": "H58K", "abundance fitness": "-0.384 ± 0.062"}, {"variant": "H58D", "abundance fitness": "-0.704 ± 0.086"}, {"variant": "H58S", "abundance fitness": "-0.523 ± 0.058"}, {"variant": "H58T", "abundance fitness": "-0.611 ± 0.082"}, {"variant": "H58F", "abundance fitness": "-0.934 ± 0.11"}, {"variant": "C45Y", "abundance fitness": "-0.917 ± 0.085"}, {"variant": "C45H", "abundance fitness": "-0.733 ± 0.1"}, {"variant": "C45E", "abundance fitness": "-1.16 ± 0.14"}, {"variant": "C45K", "abundance fitness": "-1.11 ± 0.15"}, {"variant": "C45A", "abundance fitness": "-0.77 ± 0.078"}, {"variant": "C45I", "abundance fitness": "-1.1 ± 0.25"}, {"variant": "C45W", "abundance fitness": "-1.04 ± 0.11"}, {"variant": "K59A", "abundance fitness": "-0.118 ± 0.053"}, {"variant": "K59R", "abundance fitness": "0.024 ± 0.038"}, {"variant": "K59C", "abundance fitness": "-0.199 ± 0.05"}, {"variant": "Q39C", "abundance fitness": "-0.046 ± 0.064"}]}]}
